From the nanobody polyreactivity screen of Harvey et al. (2022) come the findings set out here.

The data set can be described thus: yeast display, Sf9 membrane polyspecificity reagent, FACS + sequencing; frameworks hold sequencing errors. An outline of the steps:
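Polyreactivity labels are assigned by the sorting gate from which each nanobody was recovered. The gates were low and high (top ~1%), set on anti-HA fluorescence for expression and streptavidin fluorescence for reagent binding. Before sorting, galactose-induced (36–48 hours) yeast display cells were stained for 1 hour at 4 °C with 10% biotinylated, detergent-solubilized Sf9 membrane reagent.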
As to “QVQLVESGGGLVQAGGSLRLSCAASGRTFSNYAMGWYRQAPGKERELVAAITGSGGSTYYADSVKGRFTISRDNAKNTVYLQLISLKPEDTAVYYCNAYRASKYLTGNGHDYWGQGTQVTVSS”, the “polyreactivity (PSR sort gate)” value is reported as “low polyreactivity”.
Turning to “QVQLVESGGGLVQAGGSLRLSCAASGRTFSNYAMGWYRQAPGKERELVAAITGSGGSTYYADSVKGRFTISRDNAKNTVYLQMHSLKPEDTAVYYCNAYRASKYLTGNGHDYWGQGTQVTVSS”, the “polyreactivity (PSR sort gate)” value is on record as “low polyreactivity”.
Take “QVQLVESGGGLVQAGGSLRLSCAASGRTFSPYALGWSRKAPGKERELVAAITSRGSNTFYADSVKGRFTISRDNAKNTVYLQMNSLKPEDTAVYYCNKYTIVSRYDYWGQGTQVTVSS”: the “polyreactivity (PSR sort gate)” value was “high polyreactivity”.
In the case of “QVQLVESGGGLVQAGGSLRLSCAASGRTFSPYAMGWYRQAPGKERELVAAISWIGGSTYYADSVKGRFTISRDNAKNTVYLQMNSLKPEDTAVYYCAADKSVFSDSHAVSMIYRYDYWGQGTQVTVSS”, the “polyreactivity (PSR sort gate)” value is recorded as “low polyreactivity”.
The value for “QVQLVESGGGLVQAGGSLRLSCAASGRTFSPYAMGWYRQAPGKERELVAAITSRGASTYYADSVKGRFTISRDNAKNTVYLQINSLKPEDTAVYYCNSGRTYRRLGDYWGQGTQVTVSS” was “high polyreactivity”.
“QVQLVESGGGLVQAGGSLRLSCAASGRTFSQYAMGWYRQAPGKERELVAAISRGGGSTYYADSVKGRFTISRDNAKNTVYLQMNSLKPEDTAVYYCARATYFYYPFGSWGQGTQVTVSS”: the “polyreactivity (PSR sort gate)” value is “high polyreactivity”.
“QVQLVESGGGLVQAGGSLRLSCAASGRTFSRNAMGWYRQAPGKEREFVASISRSGTSTYYADSVKGRFTISRDNAKNTVYLHMNSLKPEDTAVYYCAKTYASSQGYDYWGLGTQVTVSS”: the “polyreactivity (PSR sort gate)” value is given as “high polyreactivity”.
In the case of “QVQLVESGGGLVQAGGSLRLSCAASGRTFSRNAMGWYRQAPGKEREFVASISRSGTSTYYADSVKGRFTISRDNAKNTVYLQMNSLKPEDTAVYYCAKTYASSQGYDYWGQGTQVTVSS”, the “polyreactivity (PSR sort gate)” value is given as “high polyreactivity”.
The value for “QVQLVESGGGLVQAGGSLRLSCAASGRTFSRNAMGWYRQAPGKERELVAAITYSGGTTYYADSVKGRFTISRDNAKNTVYLQMNSLKPEDTAVYYCATPSRKSGVGYPSYNYWGQGTQVTVSS” was “high polyreactivity”; that for “QVQLVESGGGLVQAGGSLRLSCAASGRTFSRNAMGWYRQAPGKERELVATITSDGSTNYADSVKGRFTISRDNAKNTVYLQMNSLKPEDTAVYYCAAGEQSSIIGAHDYWGQGTQVTVSS” was “low polyreactivity”; that for “QVQLVESGGGLVQAGGSLRLSCAASGRTFSRYAMGCYRQAPGKERELVAVITSSGASTYYADSVKGRFTISRDNAKNTVYLQMNSLKPEDTAVYYCAADRYYRGRRMNYWRQGTQVTVSS” was “high polyreactivity”.
In the case of “QVQLVESGGGLVQAGGSLRLSCAASGRTFSRYAMGWYRQAPGKERELVAAITSGGGSTYYADSVKGRFTISRDNAKNTVYLQMNSLKPEDTAVYYCAARTSGDGWIYYYWGQGTQVTVSS”, the “polyreactivity (PSR sort gate)” value is reported as “high polyreactivity”.
Consider “QVQLVESGGGLVQAGGSLRLSCAASGRTFSRYAMGWYRQAPGKERELVAGISRSGTSTYYADSVKGRFTFSRDNAKNTVYLQMNSLKPEDTAVYYCAAYYEYRRDYWGQGTQVTVSS”, for which the “polyreactivity (PSR sort gate)” value is listed as “high polyreactivity”.
For the sequence “QVQLVESGGGLVQAGGSLRLSCAASGRTFSRYAMGWYRQAPGKERELVASMTRRGGRTYYADSVKGRFTISRDNAKNTVYFQMTSLKPEDTAGYYCNATSQIPWSSYYYWGQGTQVTVSS”, the “polyreactivity (PSR sort gate)” value is recorded as “high polyreactivity”.
Take “QVQLVESGGGLVQAGGSLRLSCAASGRTFSRYVMGWYRQAPGKERELVAAISRTGGRTYYADSVKGRFTISRDNAKNTVYLQMNSLKPEDTAVYYCNAGTVLISTYDYWGQGTQVTVSS”: the “polyreactivity (PSR sort gate)” value is “high polyreactivity”.
On to “QVQLVESGGGLVQAGGSLRLSCAASGRTFSSYAMGWYRQAPGKERELVARISSSGGRTSYADSVKGRFTISRDNAKNTVYLQMKSLKPEDTAVYYCAKTYHWLYDYWGQGTQVTVSS”, for which the “polyreactivity (PSR sort gate)” value is listed as “high polyreactivity”.
